Type in all cases: cell-based, human
The test system of one series is MCF-7/HER2 cells. The experiment in a line: MTT assay, MCF-7/HER2 cells. The conditions noted are these: MCF-7/HER2, 10 μg/mL pRNA and 1 μM tamoxifen, 48 h. The method, then:
(§1) FIGS. 10A-10D. Evidence that pRNA-HER2apt-siMED1 nanoparticles silenced MED1 expression and sensitized two other HER2+ breast cancer cells to tamoxifen treatment. FIG. 10A) Two HER2-overexpressing breast cancer cell lines MCF7/TAM and FIG. 10B) MCF7/HER2, were treated with 10 μg/mL pRNA-HER2apt-siMED1 nanoparticles or scramble control for 48 h, and then MED1 protein level was determined using western blots. FIG. 10C) MCF7/TAM and FIG. 10D) MCF7/HER2 cells were treated with 10 μg/mL pRNA nanoparticles and/or 1 μM tamoxifen (TAM) as indicated for 48 h, and then cell growth was determined using an MTT assay.
Since MED1 has recently been reported to play key roles in tamoxifen resistance of human breast cancer, the combinational effects of pRNA-HER2apt-siMED1 nanoparticles with tamoxifen on the growth and metastatic potential of BT474 cells was examined. […] The combinational effect of pRNA-HER2apt-siMED1 nanoparticles with tamoxifen treatment on two other HER2-overexpressing breast cancer cells MCF-7/HER2 and MCF-7/TAM were also confirmed (FIGS. 10C-D).
Background: Tetrazolium dyes change colour on reduction, which living cells bring about.

The subject of series [1] is ERα target genes TFF-1, c-Myc, cyclin D1. The experiment in a line: mRNA levels of ERα target genes by real-time PCR in BT474 cells. The note with it: BT474, 48 h. The method, then:
FIG. 3A) BT474 cells were incubated with 10 μg/mL control and pRNA-HER2apt-siMED1 nanoparticles for 48 h, and MED1 mRNA level was determined by real-time PCR. FIG. 3B) BT474 cells were incubated directly with (as indicated by -) or transfected with indicated pRNAs using lipofectamine 2000. At 48 h post treatment, MED1 protein levels were determined by western blotting. FIG. 3C) BT474 cells were treated with 10 μg/mL pRNA nanoparticles for 48 h and assayed for cell viability by MTT assay. FIG. 3D) Cells were treated as above and seeded for migration, and FIG. 3E) invasion transwell assays. Scale bar: 50 μm. FIG. 3F) After pRNA treatment for 48 h, the mRNA levels of ERα target genes TFF-1, FIG. 3G) c-Myc, and FIG. 3H) cyclin D1 in BT474 cells were determined by real-time PCR.
Cell culture. Human breast cancer luciferase-overexpressing BT474 and MDA-MB-231 cells were maintained in DMEM medium (Hyclone, Thermo Scientific) supplemented with 10% fetal bovine serum (FBS, Sigma) and 1% penicillin/streptomycin (Corning) at 37° C. in a humidified atmosphere with 5% CO2.^53 • Generation of pRNA nanoparticles. The two strands of pRNA were synthesized with the DNA templates, which were amplified with overlapping primers (Sigma) by PCR methods, using a T7 promoter-controlled in vitro RNA transcription system as previously described^33 (Table 1). All the CTP and UTP used for synthesis of the pRNA nanoparticles were 2′-fluoro modified, except the control unmodified pRNA nanoparticles used in the stability assays. […] The hydrodynamic diameter and Tm value of pRNA nanoparticles were determined using dynamic light scattering and TGGE assay, respectively, as previously described.^54 The AFM imaging of the pRNA nanoparticles was performed at the University of Nebraska Medical Center imaging facility as previously reported.^55 Briefly, the pRNA nanoparticles (5 μL) were deposited on APS modified mica ^56 for a total of 2 min of incubation time. […] After washing three times with PBS, the cellular uptake of pRNAs was determined using a BD LSRFortessa™ flow cytometer. • Real-time PCR. […]
In general terms: In qPCR the cycle at which signal appears reflects the starting amount.

The subject of the next series is MED1. Put plainly: MED1 protein level by western blots in MCF-7/HER2 cells. The note with it: MCF-7/HER2, 10 μg/mL, 48 h. The method, then:
as §1
Next, the ability of pRNA-HER2apt-siMED1 nanoparticles to silence the expression of MED1 in BT474 and MDA-MB-231 human breast cancer cells was examined. Using real-time PCR analyses, a significant depletion of nearly 70% of MED1 mRNA in BT474 cells after pRNA-HER2apt-siMED1 but not pRNA-HER2apt^mut-siMED1 treatment was found (FIG. 3A).

B1: pRNA-HER2apt-siMED1: 3-WJ pRNA nanoparticle bearing a HER2-targeting RNA aptamer and two different MED1 siRNAs; strands p1 SEQ ID NO: 3, p2 SEQ ID NO: 4 (nucleic acid)
chain 1: GGACAGUGAAAGUGAGUCAAAGGAUCAAUCAUGGCCAAAGAUGUUACUUUGAGAGCCUU
chain 2: GGCUCUCAAAGUAACAUCUAAGGCCAUGUGUAUGUGGGGGGAGGACGAUGCGGUCUGCUGUGCUUGAUAUGCCCCAGACGACUCGCCCCCCACAUACUUUGUUGAUCCAAUGACUCACUUUCACUGUCCUU
modifications: 2'-F modification; third strand may lack entry; pRNA-HER2apt-siMED1, p1; pRNA-HER2apt-siMED1, p2
Consider B1, for which the “combinational effect with tamoxifen on cell growth” value in the series on MCF-7/HER2 cells was “confirmed”. Also, in series [1], the “TFF-1 mRNA expression” value is on record as “significantly down-regulated”, the “c-Myc mRNA expression” value is given as “significantly down-regulated” and the “cyclin D1 mRNA expression” value is reported as “significantly down-regulated”. Also, in the series on MED1, the MED1 silencing result was “confirmed”.

Values taken from patent US11110182B2, “Multifunctional RNA nanoparticles and methods for treating cancer and therapeutic resistant cancer” (University of Cincinnati, priority 2016, dated 2021).
